Entries after “also recorded” stand apart in the source; their conditions may differ.
Test system: Normal human epidermal keratinocytes (KC)
Experiment: Early attachment assay, keratinocytes on silk films
Format: cell-based
Protocol: Normal human epidermal keratinocytes from adult skin (NHEK-ad) were purchased from Lonza. Subculture, proliferation and migration experiments were done in KGM-Gold (Lonza), containing bovine pituitary extract, whereas adhesion experiments were performed in KGM-CD (chemically defined), supplemented with CaCl2) to give 1.2 mM Ca^2+.
Cells were harvested at passage 3-8, seeded at 20 000/cm^2 and allowed to adhere to the films or controls for 1 h in a cell incubator before gentle washing twice with pre-warmed phosphate buffered saline (PBS) followed by 10 min fixation with 96% ethanol. After three washings in water, cells were stained for 30 min with 0.1% Crystal Violet in H2O. Plates were dried after extensive washing in water.
Attachment and morphology of cells bound to the films obtained in Example 3 were documented by taking micrographs at 2× and 10× magnification in an inverted bright field microscope. The color was then dissolved in 40 μL 20% acetic acid for 10 min, and 35 μL of the solution was transferred to a 384-well plate for optical density measurement at 595 nm (TECAN Infinite M200). Wells with cells fixed without pre-washing was used as positive control. Wells with no cells were used as blank. Experiments were run in hexaplicates and repeated three times.
Determination of cell coverage area within a defined region (9.12 mm^2) of the micrographs (at 2× magnification) was done using the software NIS elements BR (Nikon).
After seeing this positive effect of the introduced FNCC motif, we wanted to find out how well the FNCC-silk would compare to native, full length fibronectin, where the RGD is presented on a turn loop constrained by the structure. We therefore used fibronectin from bovine plasma (BFN) to coat cell culture wells, as well as naked cell culture treated plastic (TCT), on which KC can be cultured, as a control. Serum-free experimental conditions was chosen to avoid possible interactions between the matrices and serum proteins that potentially could give rise to increased cell adherence.
For this purpose, we used two FN-silk variants where a linear RGD presentation is expected (FIG. 1a). The first variant (FNVS; SEQ ID NO: 15), contains the original sequence of the RGD-containing motif in fibronectin, to show the effect of the native flanking amino acids without influence of the loop conformation. In the second variant (FNSS; SEQ ID NO: 14), the two flanking cysteines in FNCC were substituted for serine, which resembles cysteine but lacks the —SH-group and is therefore unable to form disulfide bridges. The different FN-silk variants, as well as RGD-silk (SEQ ID NO: 16) and WT-silk (SEQ ID NO: 2), were evaluated with primary KC. Cells were analyzed both for early attachment (FIG. 5), spreading and formation of stress fibers (FIG. 6), and focal adhesions (FIG. 7). Early attachment assay and cellular stainings were performed as detailed in Example 6.

B1: FNCC-silk: recombinant spider silk protein 4RepCT with N-terminal cysteine-looped RGD motif CTGRGDSPAC (SEQ ID NO: 10) (protein)
chain: GPNSCTGRGDSPACGSASGQGGYGGLGQGGYGQGAGSSAAAAAAAAAAAAGGQGGQGQGGYGQGSGGSAAAAAAAAAAAAAAAGRGQGGYGQGSGGNAAAAAAAAAAAAAAAGQGGQGGYGRQSQGAGSAAAAAAAAAAAAAAGSGQGGYGGQGQGGYGQSSASASAAASAASTVANSVSRLSSPSAVSRVSSAVSSLVSNGQVNMAALPNIISNISSSVSASAPGASGCEVIVQALLEVITALVQIVSSSSVGYINPSAVNQITNVVANAMAQVMG
modifications: cyclic disulfide loop; Fusion protein; DISULFID (5)..(14)
adhesion in each individual experiment (KC on tested silk films): most efficient adhesion of the tested films | attachment seen in micrographs (KC, 1 h adhesion to film, crystal violet staining): clear improvement of attachment is seen on the FNCC films compared to both RGD and WT | cell coverage area within a defined region (9.12 mm^2) (KC, 1 h adhesion to silk films, seeding 20 000/cm2): increased attachment (i.e. area covered by cells) compared to both FNSS and FNVS; also recorded: significantly higher adhesion of KC compared to RGD-silk | cell coverage area within a defined region (9.12 mm^2) (KC, 1 h adhesion to silk films, seeding 20 000/cm2, listed as FNCC): significantly larger than on both WT- and RGD-silk | cell coverage area within a defined region (9.12 mm^2) (KC, 1 h adhesion, comparison with bovine fibronectin coating and TCT plastic, serum-free): bound equally well to the BFN and the FNCC-silk after 1 h adherence, and importantly both significantly better than TCT | OD of dissolved crystal violet (KC, 1 h adhesion, pooled data from 8 experiments (data not shown)): very similar results | effect of reducing agents added to the silk solution before films were casted (KC, DTT, β-mercaptoethanol or TCEP added): no differences compared to non-reduced FNCC film were detected

Reference: patent US10662230B2, “Cyclic RGD cell-binding motif and uses thereof” (Spiber Technologies AB, priority 2015, dated 2020)
